From US20130101549A1 (Biogen, published 2013)

Assays:
murine LTβR-Ig = molecular target: T1, murine LTβR-Ig (mouse, UniProt P50284 31-223); test: ELISA, muLTBR-Ig coated at 0.2 ug/ml, HRP goat anti-human kappa; the number is C of the printed 4-P fit (A 0.064, B 0.872, D 1.453, R^2 0.999); Fab-Light is BIIB71F10-132 by paragraph 502
T1 construct: Expressed and purified in house; also called mLTbR; murine LTBR-Ig
Experimental: (§1) Human and murine ErbB2-Fc were obtained from R&D Systems. Wells of 96-well plates were coated with 2 ug/ml or 0.2 ug/ml of human or murine HER2-Fc by incubation overnight at 4-8° C. with either of these six proteins (80 ul/well of a 0.2 or 2 ug/ml solution in PBS). Wells were emptied, filled completely with a solution of PBS with 1% BSA (blocking buffer) and incubated at room temperature for 1 hour. Wells were emptied, washed twice PBS containing 0.05% Tween 20 (PBST) and filled with the samples (80 ul/well of 3× dilution series of the standard and supernatants in blocking buffer) prepared in another 96-well plate. After a 2-hour incubation at room temperature, the wells were emptied, washed three times with PBST and filled with a solution of HRP-conjugated goat pAbs anti-human kappa chain (80 ul/well of a 2000-fold dilution in blocking buffer). After 1-hour incubation, the wells were emptied and filled with a solution of HRP substrate prepared freshly. The color was left to develop for 3 minutes and was stopped by addition of an equal volume of 1N H₂SO₄. Absorbance was measured at 450 nm using a Plate Reader (SpectraMax, Molecular Devices). The data was processed and graphs were created using SoftMax Pro software.
(§2) Human and murine LTBR-Ig were expressed and purified in house.

human LTβR-Ig [1] = molecular target: T2, human LTβR-Ig (human, UniProt P36941 31-227); test: ELISA, huLTBR-Ig coated at 2 ug/ml, HRP goat anti-human kappa; the number is C of the printed 4-P fit (A 0.025, B 0.807, D 1.574, R^2 0.998); Fab-Light is BIIB71F10-132 by paragraph 502
T2 construct: Expressed and purified in house; also called hLTbR-Ig; human LTBR-Ig
Experimental: as §1, §2

murine HVEM-Ig = molecular target: T3, murine HVEM-Ig (mouse, UniProt Q80WM9 39-210); test: ELISA, muHVEM-Ig coated at 2 ug/ml, HRP goat anti-human kappa; the number is C of the printed 4-P fit (A 0.036, B 0.816, D 1.534, R^2 0.997); Fab-Light is BIIB71F10-132 by paragraph 503
T3 construct: Expressed and purified in house
T3 sequence (looked up): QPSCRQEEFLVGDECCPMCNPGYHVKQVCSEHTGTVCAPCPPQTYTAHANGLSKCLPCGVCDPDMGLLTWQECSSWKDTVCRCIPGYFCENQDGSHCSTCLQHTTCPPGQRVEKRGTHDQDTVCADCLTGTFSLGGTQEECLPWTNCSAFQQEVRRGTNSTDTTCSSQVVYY
Experimental: as §1
(§3) Human and murine HVEM-Ig were expressed and purified in house.

human HVEM-Ig [2] = molecular target: T4, human HVEM-Ig (human, UniProt Q92956 39-202); test: Octet biolayer interferometry, receptor-Fc on anti-human Fc biosensor, culture supernatant
T4 construct: Expressed and purified in house; also called HVEM-Fc; Herpes virus entry mediator-Ig
T4 sequence (looked up): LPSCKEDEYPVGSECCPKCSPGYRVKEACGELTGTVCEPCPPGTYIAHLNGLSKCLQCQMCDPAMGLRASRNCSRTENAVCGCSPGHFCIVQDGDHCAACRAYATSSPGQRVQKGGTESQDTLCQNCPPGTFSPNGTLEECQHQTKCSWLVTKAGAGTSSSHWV
Experimental: Anti-human Fc-specific biosensors (Fortebio SKU 18-0001) were hydrated in OB (1×PBS supplemented with 1 mg/ml BSA, 0.05% NaN₃, and 0.02% TWEEN 20) for at least five minutes prior to assays. For each assay, the respective receptor—Fc fusion was diluted to 10 μg/ml in OB and allowed to bind to the biosensors for five minutes. The sensors were then incubated in the indicated culture supernatant for an additional five minutes, and subsequently transferred to fresh wells […].

murine HER2-Fc = molecular target: T5, murine HER2-Fc (mouse; human, UniProt P70424 23-653); test: ELISA on coated muHER2-Fc, HRP anti-human kappa; the number is C of the printed 4-P fit (A -0.025, B 0.883, D 0.935, R^2 0.999); x axis: Fab equivalent concentration
T5 construct: extracellular domain; Bought from R&D Systems; also called murine ErbB2-Fc; not shown: Fc fragment of human IgG1
Experimental: as §1, with “Wells” for “Human and murine ErbB2-Fc were obtained from R&D Systems. Wells”, “coated” for “coated with 2 ug/ml or 0.2 ug/ml of human or murine HER2-Fc”, “goat antibodies against human kappa chain” for “either of these six proteins”, “5” for “0.2 or 2”
Human and murine HER2-Fc (homodimeric fusion proteins consisting of the extracellular domain of HER2 and the Fc fragment of human IgG1) were obtained from R&D Systems. […]

human HVEM-Ig [3] = molecular target: T4, human HVEM-Ig; test: ELISA, huHVEM-Ig coated at 0.2 ug/ml, HRP goat anti-human kappa; the number is C of the printed 4-P fit (A 0.08, B 1.089, D 1.303, R^2 0.999); Fab-Light is BIIB71F10-132 by paragraph 503
Experimental: as §1, §3

human LTβR-Ig [4] = molecular target: T2, human LTβR-Ig; test: ELISA on coated LTbR-Ig
Experimental: as §1, §2

IGFR-Ig = molecular target: T6, IGFR-Ig (UniProt P08069 31-932); test: ELISA on IGFR-Ig, dilutions of medium of transfected CHO cells; the linker version of the control fusion is not named on the sheet
T6 construct: not shown: Ig part not specified

T2 sequence (P36941 31-227): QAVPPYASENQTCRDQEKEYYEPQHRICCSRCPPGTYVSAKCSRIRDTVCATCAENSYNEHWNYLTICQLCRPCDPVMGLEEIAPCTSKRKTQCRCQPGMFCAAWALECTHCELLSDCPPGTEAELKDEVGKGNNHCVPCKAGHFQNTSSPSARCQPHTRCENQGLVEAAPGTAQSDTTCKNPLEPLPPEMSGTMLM
T1 sequence (P50284 31-223): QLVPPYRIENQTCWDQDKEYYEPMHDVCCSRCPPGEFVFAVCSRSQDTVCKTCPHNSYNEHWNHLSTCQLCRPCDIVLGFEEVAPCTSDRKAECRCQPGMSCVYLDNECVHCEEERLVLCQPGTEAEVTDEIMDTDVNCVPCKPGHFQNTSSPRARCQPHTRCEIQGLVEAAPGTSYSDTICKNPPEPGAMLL
T5 sequence (P70424 23-653): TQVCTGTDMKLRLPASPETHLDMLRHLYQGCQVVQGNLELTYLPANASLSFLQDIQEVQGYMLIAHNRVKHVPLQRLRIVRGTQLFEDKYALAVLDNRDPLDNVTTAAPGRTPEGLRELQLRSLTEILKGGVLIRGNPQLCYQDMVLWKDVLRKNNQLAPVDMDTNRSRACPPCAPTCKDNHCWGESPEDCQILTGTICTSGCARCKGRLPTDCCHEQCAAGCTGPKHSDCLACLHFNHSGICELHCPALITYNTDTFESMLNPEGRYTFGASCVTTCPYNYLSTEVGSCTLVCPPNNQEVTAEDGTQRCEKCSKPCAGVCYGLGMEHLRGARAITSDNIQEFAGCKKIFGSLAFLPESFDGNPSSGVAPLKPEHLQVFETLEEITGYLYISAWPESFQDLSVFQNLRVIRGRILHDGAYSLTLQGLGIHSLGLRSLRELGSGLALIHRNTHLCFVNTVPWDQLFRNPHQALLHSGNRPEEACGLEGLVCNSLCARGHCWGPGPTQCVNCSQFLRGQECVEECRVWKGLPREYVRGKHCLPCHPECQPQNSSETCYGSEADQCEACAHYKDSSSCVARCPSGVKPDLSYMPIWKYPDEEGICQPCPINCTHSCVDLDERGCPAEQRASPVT

B1: 71F10 Fab-hLIGHT fusion with the (G4S)4 linker (BIIB71F10-132) (other)
heavy: EVQLLESGGGLVQPGGSLRLSCAASGFTFSSYGMVWVRQAPGKGLEWVSSISSSGGLTWYADSVKGRFTISRDNSKNTLYLQMNSLRAEDTAVYYCASPPGIAVARDYWGQGTLVTVSSASTKGPSVFPLAPSSKSTSGGTAALGCLVKDYFPEPVTVSWNSGALTSGVHTFPAVLQSSGLYSLSSVVTVPSSSLGTQTYICNVNHKPSNTKVDKKVEPKSCDKGGGGSGGGGSGGGGSGGGGSNPAAHLTGANSSLTGSGGPLLWETQLGLAFLRGLSYHDGALVVTKAGYYYIYSKVQLGGVGCPLGLASTITHGLYKRTPRYPEELELLVSQQSPCGRATSSSRVWWDSSFLGGVVHLEAGEEVVVRVLDERLVRLRDGTRSYFGAFMV
light: DIQMTQSPSSLSASVGDRVTITCRASQGISNYLAWYQQKPGKVPKLLIYAASTLQSGVPSRFSGSGSGTDFTLTISSLQPEDVATYYCQKYNSALLTFGGGTKVEIKRTVAAPSVFIFPPSDEQLKSGTASVVCLLNNFYPREAKVQWKVDNALQSGNSQESVTEQDSKDSTYSLSSTLTLSKADYEKHKVYACEVTHQGLSSPVTKSFNRGEC
notes: Trimer of Fab-LIGHT units; also called 71F10 Fab-(G4S)4-LIGHT
**Q.** B1 was tested. Which EC50 (murine LTβR-Ig) did it give?
**A.** 58.8 ng/mL

**Q.** What about the EC50 (human LTβR-Ig [1]) of the same binder?
**A.** 2.69 ng/mL

**Q.** What about the EC50 (murine HVEM-Ig) of the same binder?
**A.** 2.5 ng/mL

**Q.** And the koff (human HVEM-Ig [2])?
**A.** 0.00016 s⁻¹

**Q.** And the EC50 (murine HER2-Fc)?
**A.** 12.2 ng/mL

**Q.** What about the EC50 (human HVEM-Ig [3]) of the same binder?
**A.** 3.98 ng/mL

**Q.** And the EC50 (human LTβR-Ig [4])?
**A.** 0.01 nM

**Q.** Does B1 bind (IGFR-Ig)?
**A.** no binding (tested: dilution 1.00 (undiluted medium))
